Reference: patent US20090318342A1, “Compounds” (IMPERIAL INNOVATIONS LIMITED, priority 2005, published 2009)

T1: gelatinase A (MMP-2) (Homo sapiens, UniProt P08253)
T1 sequence (P08253 110-660): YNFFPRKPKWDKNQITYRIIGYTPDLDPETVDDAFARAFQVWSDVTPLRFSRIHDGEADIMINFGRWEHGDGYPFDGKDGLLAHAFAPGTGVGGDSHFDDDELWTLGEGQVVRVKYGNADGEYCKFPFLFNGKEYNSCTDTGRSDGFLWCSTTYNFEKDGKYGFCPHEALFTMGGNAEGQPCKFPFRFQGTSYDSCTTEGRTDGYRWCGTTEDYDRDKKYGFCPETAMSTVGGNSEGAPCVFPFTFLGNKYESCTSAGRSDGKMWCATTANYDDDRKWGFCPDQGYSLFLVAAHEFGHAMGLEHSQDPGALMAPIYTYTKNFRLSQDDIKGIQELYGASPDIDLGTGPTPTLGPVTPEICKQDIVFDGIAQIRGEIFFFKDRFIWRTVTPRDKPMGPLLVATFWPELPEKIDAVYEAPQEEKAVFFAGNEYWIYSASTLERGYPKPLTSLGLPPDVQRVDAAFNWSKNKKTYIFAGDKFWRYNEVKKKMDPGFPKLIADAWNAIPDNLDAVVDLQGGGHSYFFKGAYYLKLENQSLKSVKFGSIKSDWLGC


Assays:
[1] = system: bovine nasal cartilage explants; assay: IL-1α-stimulated bovine nasal cartilage explants, GAG release; assay type: cell-based; conditions: 3 days
Procedure: GAG released into the conditioned media is measured in duplicate using a modification of the dimethylmethylene blue (DMMB) assay as described in Farndale et al.. Shark chondroitin sulfate (0-2.62 μg) is used as standard. The % of total GAG released into the medium is calculated as follows: % of total GAG released=(total GAG in the medium)/(total GAG in the medium+total GAG remaining in the cartilage).
Bovine nasal cartilage explants were stimulated with IL-1α in the presence or absence of N-TIMP-1, TIMP-2, or N-TIMP-3 for 3 days.

[2] = target: T1, gelatinase A (MMP-2); conditions: Table I; data taken from ref. 8; read-out: Ki(app) MMP-2; cited from earlier work
[3] = target: T2, catalytic domain of stromelysin 1 (MMP-3(ΔC)) (Homo sapiens, UniProt P08254); conditions: Table I; data taken from ref. 8; read-out: Ki(app) MMP-3(ΔC); cited from earlier work
T2 construct: the catalytic domains of stromelysin 1 (MMP-3(ΔC)) and membrane-type 1 MMP (MMP-14)

[4] = target: catalytic domain of membrane-type 1 MMP (MMP-14(CD)); assay: Enzyme inhibition kinetic study, MMP-14; assay type: biochemical; conditions: Table I; enzyme 5 nM; pH 7.5; read-out: Ki(app) MMP-14(CD)
Procedure: FIG. 2. Inhibition of MMP and TACE by N-TIMP-3 and its mutants. A. Inhibition of MMP-14(CD) by wild-type and mutated N-TIMP-3. Open circles, wild-type N-TIMP-3; closed circles, T2G; and open squares, -1A. B. Comparison of the inhibition of TACE by wild-type N-TIMP-3, N-TIMP-1 and TAPI-2. The inhibitors were incubated with 0.5 nM TACE for 3 hr at room temperature, and the residual enzyme activity was measured with 10 μM Substrate III (R&D Systems). The assays were performed at pH 9.0 at a final NaCl concentration of 1 mM. Open circles, N-TIMP-3; closed circles, TAPI-2; and open squares, N-TIMP-1. C. Inhibition of TACE (0.5 nM) by wild-type and mutated N-TIMP-3. Open circles, wild-type inhibitor; closed circles, T2G; and open squares, -1A.
Enzyme inhibition kinetic studies—Inhibition kinetic studies for MMPs and TACE were carried out as described previously (19, 27) with modifications. Purified N-TIMP-3 and mutants were dialyzed against 20 mM Tris-HCl (pH 7.0), 50 mM NaCl containing 20% glycerol, centrifuged at 14,000 rpm for 10 min to remove any precipitate, and protein concentration was re-measured before conducting inhibition assays. […]
where v is the experimentally determined reaction velocity, v0 is the uninhibited activity, E is enzyme concentration, I is inhibitor concentration, K is the apparent inhibition constant (Ki^(app)) and h is the Hill coefficient. […]

T2 sequence (P08254 100-272 limits assumed, stated change not applied): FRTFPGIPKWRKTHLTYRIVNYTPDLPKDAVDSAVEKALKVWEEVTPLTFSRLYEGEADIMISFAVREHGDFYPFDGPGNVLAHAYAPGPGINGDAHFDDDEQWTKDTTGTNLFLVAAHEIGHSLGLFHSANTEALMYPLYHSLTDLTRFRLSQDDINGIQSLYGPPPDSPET

Ki [4] | Molecule | Inhibition of IL-1α-stimulated GAG release [1] | Ki [2] | Ki [3]
– | N-TIMP-3: N-terminal inhibitory domain of TIMP-3 (residues 1 to 121), C-terminally His-tagged, wild-type (protein) CTCSPSHPQDAFCNSDIVIRAKVVGKKLVKEGPFGTLVYTIKQMKMYRGFTKMPHVQYIHTEASESLCGLKLEVNKYQYLLTGRVYDGKMYTGLCNFVERWDQLTLSQRKGLNYRYHLGCN | significantly inhibited | 4.3 ± 0.5 nM | 67 ± 2.8 nM
941 ± 206 nM | -1A: N-TIMP-3 mutant with the addition of an N-terminal alanine extension (-1A) (protein) ACTCSPSHPQDAFCNSDIVIRAKVVGKKLVKEGPFGTLVYTIKQMKMYRGFTKMPHVQYIHTEASESLCGLKLEVNKYQYLLTGRVYDGKMYTGLCNFVERWDQLTLSQRKGLNYRYHLGCN | – | – | –
